Results on 2 molecules are retold here after US20150175697A1 (MacroGenics, published 2015).

The target of test [1] is T1, sCD32B-Ig (UniProt P31994 43-217).
T1 construct: extracellular domain; also called CD32B-Fc; CD32-Fc; not shown: Ig/Fc part not described
T1 sequence (looked up): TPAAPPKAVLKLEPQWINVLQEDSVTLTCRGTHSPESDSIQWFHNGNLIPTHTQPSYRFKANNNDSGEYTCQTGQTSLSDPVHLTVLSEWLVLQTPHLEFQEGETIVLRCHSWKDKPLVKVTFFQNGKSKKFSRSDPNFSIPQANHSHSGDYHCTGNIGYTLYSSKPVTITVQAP
The experiment in a line: sandwich ELISA, sCD32B-Ig coat, sCD16A probe. (In general: An ELISA detects its analyte on a solid surface through an enzyme-linked reagent.)

Test [2] deals with T2, soluble CD32B (sCD32B) (human, UniProt P31994 43-217).
T2 construct: extracellular domain; also called FcγRIIB; soluble CD32B ectodomain
T2 sequence (looked up): T1 sequence (looked up)
The experiment in a line: sandwich ELISA: sCD32B coated (sCD32B-Ig, 2 ug/ml), diabody titrated, labelled sCD16A as probe.

For test [3], the target named is T3, soluble CD32A (sCD32A) (UniProt P12318 34-217, limits assumed).
T3 construct: extracellular domain; also called sCD32A (negative control)
T3 sequence (looked up): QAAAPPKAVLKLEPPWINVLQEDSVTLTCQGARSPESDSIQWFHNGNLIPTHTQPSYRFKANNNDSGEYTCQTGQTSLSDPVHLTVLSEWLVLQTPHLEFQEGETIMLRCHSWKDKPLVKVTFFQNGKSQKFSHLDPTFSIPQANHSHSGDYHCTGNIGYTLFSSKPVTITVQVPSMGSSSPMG
The experiment in a line: SPR (BIAcore): sCD32A (negative control) immobilised, diabody injected for 60 s. In general terms: In SPR one partner is held on a chip, and binding of the other changes the refractive index at the surface.

The target in test [4] is T4, human serum albumin (HSA) (human, UniProt P02768 25-609).
T4 construct: also called HRP-human albumin
The experiment in a line: HSA binding class.

B1: h3G8 covalent monospecific diabody (CMD) (other)
chain: DIVMTQSPDSLAVSLGERATINCKASQSVDFDGDSFMNWYQQKPGQPPKLLIYTTSNLESGVPDRFSGSGSGTDFTLTISSLQAEDVAVYYCQQSNEDPYTFGQGTKLEIKGGGSGGGGQVTLRESGPALVKPTQTLTLTCTFSGFSLSTSGMGVGWIRQPPGKALEWLAHIWWDDDKRYNPALKSRLTISKDTSKNQVVLTMTNMDPVDTATYYCAQINPAWFAYWGQGTLVTVSSLGGC
modifications: covalent homodimer: two copies of this chain, disulfide-linked through the C-terminal LGGC cysteine
notes: covalent homodimer; also called h3G8 CMD; h3G8 diabody
As to B1, the binding result is recorded as “no binding (tested: 0.5 µg/ml to 0.001 µg/ml)” in test [1], “no binding (tested: 0.5 ug/ml)” in test [2] and “no binding (tested: 100 nM)” in test [3].
Consider LAEAKVLANRELDKYGVSDYYKNGANNAKTAEGVKALIDEILAALP (other, also called 64G/65A/71A) [ABD3 L64G/I65A/V71A], for which the HSA binding in test [4] is < 0.1.
